Data published in PMC4512291 (Angewandte Chemie (International Ed. in English), 2015).

Biological target: HPV16 E6 (GPCA fusion) (HPV16, UniProt P03126 1-158)
Assay: split reporter

B1: PDZ-LxxLL chimera fused to a Gaussia princeps luciferase fragment (GPCA) (designed binder)
chain: GKPFFTRNPSELKGKFIHTKLRKSSRGFGFTVVGGDEPDEFLQIKSLVLDGPAALDGKMETGDVIVSVNDTCVLGHTHAQVVKIFQSIPIGASVDLELCRGYPLPFDPDDPNTSLVTSVAILDKEPAAAELTLQELLGEER
  fold increase of the GPCA binding signal over that with LxxLL: 75 fold
  fold increase of the GPCA binding signal over that with PDZ: 25 fold
